# T1: human 4Ig-B7-H3 (human, UniProt Q5ZPR3 29-534)
# T1 construct: whole, on cells; also called 4Ig-hB7-H3; Raji-4IgB7-H3
# T1 sequence (looked up): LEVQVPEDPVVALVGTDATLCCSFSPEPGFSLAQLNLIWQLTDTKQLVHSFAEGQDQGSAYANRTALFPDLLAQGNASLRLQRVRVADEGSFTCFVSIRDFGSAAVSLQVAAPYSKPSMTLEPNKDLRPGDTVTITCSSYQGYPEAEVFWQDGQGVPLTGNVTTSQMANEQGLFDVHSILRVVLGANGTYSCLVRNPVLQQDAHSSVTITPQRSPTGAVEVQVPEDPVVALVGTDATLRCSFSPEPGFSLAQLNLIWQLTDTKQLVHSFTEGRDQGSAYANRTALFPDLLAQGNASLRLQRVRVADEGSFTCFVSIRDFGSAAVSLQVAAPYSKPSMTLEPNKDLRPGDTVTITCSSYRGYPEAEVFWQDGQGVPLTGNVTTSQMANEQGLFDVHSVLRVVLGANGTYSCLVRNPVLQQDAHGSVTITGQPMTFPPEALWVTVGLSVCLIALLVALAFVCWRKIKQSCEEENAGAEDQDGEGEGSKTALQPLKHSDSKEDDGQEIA
# T2: murine B7-H3 (mouse, UniProt Q8VE98 29-316)
# T2 construct: whole, on cells; also called mB7-H3; mouse B7-H3
# T2 sequence (looked up): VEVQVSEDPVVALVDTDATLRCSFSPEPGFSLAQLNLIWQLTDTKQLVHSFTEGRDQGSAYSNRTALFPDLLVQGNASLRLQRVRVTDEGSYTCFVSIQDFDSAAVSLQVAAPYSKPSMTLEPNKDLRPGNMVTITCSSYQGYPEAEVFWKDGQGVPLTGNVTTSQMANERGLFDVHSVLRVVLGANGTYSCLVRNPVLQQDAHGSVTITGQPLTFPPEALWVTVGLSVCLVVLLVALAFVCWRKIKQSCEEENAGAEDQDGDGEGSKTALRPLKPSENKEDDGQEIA
# What was measured:
# human 4Ig-B7-H3 = target: T1, human 4Ig-B7-H3; assay: flow cytometry on Raji clones expressing 4Ig-hB7-H3
# murine B7-H3 = target: T2, murine B7-H3; assay: flow cytometry on Raji clones expressing mB7-H3
binder,measurement,setting,value
"anti-B7-H3 mAb 376.96 (antibody, V domains shown, The residue ranges are my derivation) VH: EVQLVESGGGLVKPGGSLKLSCEASRFTFSSYAMSWVRQTPEKRLEWVAAISGGGRYTYYPDSMKGRFTISRDNAKNFLYLQMSSLRSEDTAMYYCARHYDGYLDYWGQGTTLTVSS VL: DIVMTQSHKFMSTSIGARVSITCKASQDVRTAVAWYQQKPGQSPKLLIYSASYRYTGVPDRFTGSGSGTDFTFTISSVQAEDLAVYYCQQHYGTPPWTFGGGTKLEIK",binding result,human 4Ig-B7-H3,binds
same,binding result,murine B7-H3,binds
